What was measured:
[1] = target: T1, recombinant human EGFR/ErbB1/HER1 with C-terminal His tag, Cy5-labeled (human, UniProt P00533 25-645, Cy5 label (reacted with Cy5 Mono NHS Ester; sites not stated)); experiment: competitive TR-FRET (Eu-amivantamab/Cy5-EGFR), EC50 ratio vs Reference Material; Ex. 11 drug product, 5 months at 5 C
T1 construct: Commercial protein; also called Cy5-EGFR; Cy5-labeled EGFR antigen; not shown: C-terminal His tag
From the text: (§1) In this procedure, varying concentrations of unlabeled bispecific EGFR-cMet antibody sample compete with donor fluorophore (Europium (Eu) chelate) labeled bispecific EGFR-cMet antibody for binding to an acceptor fluorophore (Cy5)-labeled EGFR antigen. Excitation of the donor fluorophore results in a transfer of energy to the bound acceptor fluorophore (FRET process). The resultant FRET is detected by emission of light at 665 nm using a microplate reader capable of measuring time-resolved fluorescence. Sample dose response curves are compared to the RM.
(§2) EGFR Binding Materials and Methods. Certified commercial EGFR, a recombinant human EGFR/ErbB1/HER1 with C-terminal His tag is reacted with certified commercial Cy5 Mono NHS Ester to produce Cy5-labeled EGFR. Validated bispecific EGFR-cMet antibody is reacted with certified commercial Europium (Eu) chelate to produce Eu-labeled bispecific EGFR-cMet antibody. […] Fluorescence is then measured by spectrophotometry at 665 nm, plotted against antibody concentration and analyzed by a four-parameter logistic model. The antibody concentration required to obtain half of the maximum fluorescence response (EC50) is determined for RM, assay control and samples. The potencies of assay control and samples are calculated based on the ratio of the sample (or control) and RM EC50 values and reported as a percentage activity relative to the RM.

[2] = target: T1, recombinant human EGFR/ErbB1/HER1 with …; experiment: competitive TR-FRET (Eu-amivantamab/Cy5-EGFR), EC50 ratio vs Reference Material; Ex. 11 drug product, 9 months at 5 C
From the text: as §1, §2

[3] = target: T2, recombinant cMet/HGFR with c-terminal His-tag, Cy5-labeled (UniProt P08581 25-932, limits assumed, Cy5 label (reacted with Cy5 Mono NHS Ester; sites not stated)); experiment: competitive TR-FRET (Eu-amivantamab/Cy5-c-MET), EC50 ratio vs Reference Material; Ex. 11 drug product, 3 months at 40 C
T2 construct: Commercial protein; also called Cy5-c-MET; Cy5-labeled c-MET antigen; not shown: C-terminal His-tag
From the text: (§3) In this procedure, varying concentrations of unlabeled bispecific EGFR-cMet antibody sample compete with donor fluorophore (Europium (Eu) chelate) labeled bispecific EGFR-cMet antibody for binding to an acceptor fluorophore (Cy5)-labeled c-MET antigen. Excitation of the donor fluorophore results in a transfer of energy to the bound acceptor fluorophore (FRET process). The resultant FRET is detected by emission of light at 665 nm using a microplate reader capable of measuring time-resolved fluorescence. Sample dose response curves are compared to the Reference Material (RM).
as §2, with “c-MET Binding” for “EGFR Binding”, “commercial cMet,” for “commercial EGFR,”, “recombinant cMet/HGFR” for “recombinant human EGFR/ErbB1/HER1”, “with c-terminal His-tag” for “with C-terminal His tag”, “Cy5-labeled c-MET.” for “Cy5-labeled EGFR.”, “produce Eu labeled” for “produce Eu-labeled”

[4] = target: T2, recombinant cMet/HGFR with c-terminal …; experiment: competitive TR-FRET (Eu-amivantamab/Cy5-c-MET), EC50 ratio vs Reference Material; Ex. 2 Formulation 3 (acetate), 1 month at 40 C
From the text: as §3
as §2, with “c-MET Binding” for “EGFR Binding”, “commercial cMet,” for “commercial EGFR,”, “recombinant cMet/HGFR” for “recombinant human EGFR/ErbB1/HER1”, “with c-terminal His-tag” for “with C-terminal His tag”, “Cy5-labeled c-MET.” for “Cy5-labeled EGFR.”, “produce Eu labeled” for “produce Eu-labeled”

[5] = target: T1, recombinant human EGFR/ErbB1/HER1 with …; experiment: competitive TR-FRET (Eu-amivantamab/Cy5-EGFR), EC50 ratio vs Reference Material; Ex. 12 drug product with rHuPH20, 1 month at 40 C
From the text: as §1, §2

[6] = target: T1, recombinant human EGFR/ErbB1/HER1 with …; experiment: competitive TR-FRET (Eu-amivantamab/Cy5-EGFR), EC50 ratio vs Reference Material; Ex. 2 Formulation 2 (50 mM histidine), T0, 5 C table
From the text: as §1, §2

[7] = target: T2, recombinant cMet/HGFR with c-terminal …; experiment: competitive TR-FRET (Eu-amivantamab/Cy5-c-MET), EC50 ratio vs Reference Material; Ex. 2 Formulation 1 (10 mM histidine), 3 months at 40 C
From the text: as §3
as §2, with “c-MET Binding” for “EGFR Binding”, “commercial cMet,” for “commercial EGFR,”, “recombinant cMet/HGFR” for “recombinant human EGFR/ErbB1/HER1”, “with c-terminal His-tag” for “with C-terminal His tag”, “Cy5-labeled c-MET.” for “Cy5-labeled EGFR.”, “produce Eu labeled” for “produce Eu-labeled”

[8] = target: T2, recombinant cMet/HGFR with c-terminal …; experiment: competitive TR-FRET (Eu-amivantamab/Cy5-c-MET), EC50 ratio vs Reference Material; Ex. 3 acetate formulation, 6 months at 25 C then 5 freeze/thaw cycles
From the text: as §3
as §2, with “c-MET Binding” for “EGFR Binding”, “commercial cMet,” for “commercial EGFR,”, “recombinant cMet/HGFR” for “recombinant human EGFR/ErbB1/HER1”, “with c-terminal His-tag” for “with C-terminal His tag”, “Cy5-labeled c-MET.” for “Cy5-labeled EGFR.”, “produce Eu labeled” for “produce Eu-labeled”

B1: amivantamab (bispecific antibody, human IgG1, kappa)
heavy 1: not shown
light 1: not shown
heavy 2: not shown
light 2: DIQMTQSPSSVSASVGDRVTITCRASQGISNWLAWFQHKPGKAPKLLIYAASSLLSGVPSRFSGSGSGTDFTLTISSLQPEDFATYYCQQANSFPITFGQGTRLEIKRTVAAPSVFIFPPSDEQLKSGTASVVCLLNNFYPREAKVQWKVDNALQSGNSQESVTEQDSKDSTYSLSSTLTLSKADYEKHKVYACEVTHQGLSSPVTKSFNRGEC
notes: The samples tested were high concentration (160 mg/mL) formulations, fresh or stored or stressed; also called JNJ-61186372; bispecific EGFR-cMet antibody
B1 was tested, and the “EGFR Binding activity relative to Reference Material (%)” value [1] was 85%, the “EGFR Binding activity relative to Reference Material (%)” value [2] was 90% and the “cMET Binding activity relative to Reference Material (%)” value [3] was 78%. The “cMET Binding % activity relative to RM” value [4] was 100%, the “EGFR Binding activity relative to Reference Material (%)” value [5] was 41% and the “EGFR Binding % activity relative to RM” value [6] was 103%. For the same binder, the “cMET Binding % activity relative to RM” value [7] was 67% and the “cMET Binding % activity relative to RM” value [8] was 84%.
